Measured values published in the RNAGym collection of RNA variant scans (doi:10.1073/pnas.2313332121).
This sample holds only a part of the variants without activity.

B1: TPR 5TU (parent)
chain: GGAUCUUCUCGAUCUAACAAAAAAGACAAAUCUGCCACAAAGCUUGAGAGCAUCUUCGGAUGCAGAGGCGGCAGCCUUCGGUGGCGCGAUAGCGCCAACGUUCUCAACUAUGACACGCAAAACGCGUGCUCCGUUGAAUGGAGUUUAUCAUG

Variants of: B1
Test: polymerase ribozyme fitness, log enrichment relative to wild type (log ratio); higher = more active; in vitro selection for triplet polymerase activity
Method in brief: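 Input and output libraries were sequenced on Illumina after a single in vitro selection round, run in triplicate on PCR-built, transcribed mutant libraries of each subunit of a heterodimeric triplet polymerase ribozyme. Selection annealed libraries to a biotinylated primer, the partner subunit and triplets, incubated them frozen at −7 °C, then gel-excised extended constructs for streptavidin-bead capture and RT-PCR. Genotypes with ≥10 input reads and ≥1 read per output were kept. Fitness is the logarithm, taken in base 2, of genotype enrichment divided by wild-type enrichment, using inverse-variance-weighted replicate averages.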

Point of comparison: A106G C116U U148C, “polymerase ribozyme fitness (log ratio)” value -1.25. Against it:
- A17C A91U — lower, ≤ -4.2
- C69U C95U — lower, -1.47
- G46A C99U G141A — lower, ≤ -4.2
- G50C U90C U104G — lower, ≤ -4.2
- C10G A37G G92C U135G A137G C149G — lower, ≤ -4.2
- G86U U90G A98U G143C — lower, ≤ -4.2
- G46U G59C C85A A115U — lower, -4.01
- G48C G141A — lower, -3.64
- A47C G126A — higher, 0.0505
- A21G A40C G86U A119G A150C — lower, ≤ -4.2
- G70C C96U G100A C118G A120C — lower, ≤ -4.2
- C105G U134C G140U — lower, -4.18
- G74A U148A — lower, ≤ -4.2
- U15G A26U A52G G83A U102G — lower, ≤ -4.2
- C5G U53A — lower, -1.8
- U4G A20C C85U — higher, -0.147
- C51U U56G A73C C79G C93G A137C — lower, ≤ -4.2
- A29G U111A — lower, ≤ -4.2
- G50A C125U — within 0.2 log units, -1.35
- C8U G81U C95U — lower, ≤ -4.2
- C36G G59U C105G — lower, ≤ -4.2
- A12U C18A C36U C57A C95U A97G A98U C125U — lower, -3.95
- G50A C85G C93A C129G — lower, ≤ -4.2
- A23U U109A — lower, ≤ -4.2
- U6G A122C — higher, -0.304
- G50U U102A — higher, -0.888
- A49U C57G U61A A73G G88C A97C U135A G152A — lower, ≤ -4.2
- A73U G80U — lower, -2.82
- C57A A89U A98G — higher, 0.118
- C36G G86A G117U U130A G140A — lower, ≤ -4.2
- G70A G86A A89G C99A — lower, ≤ -4.2
- A37G G124A — lower, -2.19
- A37G U45G C57G C95U — lower, -3.33
- A17U A26C G62U U78G G100A G152U — lower, ≤ -4.2
- U6G A20U C93A C116A U135A — lower, -3.29
- A52U U104A G133C G141C U146G — lower, ≤ -4.2
- A24U C51G U55A G59C — lower, -2.27
- A12G A60G C93U — higher, -0.294
- G92A C149U — lower, -3.4
- U15A C85A — lower, -1.53
- C51U G86A — lower, -2.13
- U56A C95A C103G C132A U146A — lower, ≤ -4.2
- U9A C76U C85U C132U G133C — lower, ≤ -4.2
- G80A G84A A120G — within 0.2 log units, -1.33
- A60U A150C — lower, -3.39
- C14U C54U G84A G133U — lower, -3.87
- C51A C63U C85A G126A C129A G140A — lower, ≤ -4.2
- A41U C54A G59A C85G — lower, -3.6
- U6G A23U A73G C76A A98G C105G A113C A119G — lower, ≤ -4.2
- A66C G71C G84U — lower, ≤ -4.2
- A12G U55A G71A G80C — lower, ≤ -4.2
- U55G U127A — lower, -3.34
- C14A C54A — lower, -3.55
- U78A C93G C108U — lower, ≤ -4.2
- A24G C96G A137U — lower, ≤ -4.2
- A16U U61G G81A — lower, -1.91
- C93G C103G — lower, ≤ -4.2
- U31A A47C U56A C87U — higher, -0.397
- U6C A47G G59C G92U C99A C118G — lower, -3.32
- C38G C54G U82C U146A — lower, -1.88
- U90C U104A — lower, -4.11
- A24U C35A A41C G88C — lower, ≤ -4.2
- G42U C76G G80A C95G — lower, ≤ -4.2
- G50C C63U U82C A115U U146A — lower, -1.83
- A30G C43G G83A — lower, ≤ -4.2
- A41C C99G — higher, -0.603
- G68U G94C C95A A115U G136U — lower, ≤ -4.2
- A3U A47C C105U A120C G124A — lower, -1.78
- G126A — higher, 0.682
- A20U C72U C85A U134C A150C — lower, ≤ -4.2
- C14U G92A C103G — lower, ≤ -4.2
- C14A C36U U45C C87U C105A G133U — lower, ≤ -4.2
- U55A A142U — higher, -0.464
- U15A C51U G86U — lower, -1.69
- G117C A120G — higher, 0.308
- A37U G68U C118A — lower, ≤ -4.2
- C32U A49U — lower, -4.14
- U56G C85A C95A — lower, -1.74
- A16G C116A — higher, 0.283
- A23G A49U C51U U53A A60G U61A G71U A73G C85A C87A C105G — lower, ≤ -4.2
- C18U C54U C93G A119C — lower, ≤ -4.2
- A29U U61A A91C C96A G128C — lower, ≤ -4.2
- A16C A26U — lower, -2.62
- G92U C125U — within 0.2 log units, -1.4
- U15A C63U U151A — lower, -3.9
- C57A C75U G92C G140U — lower, ≤ -4.2
- A30C A41G C76U G83A A89U G124A C131U C132G G143A U144A C149A — lower, ≤ -4.2
- U9G A29G A47C U53A U55G G124C G133C G143A — lower, ≤ -4.2
- U104A — higher, 0.0691
- C87U C96U C125U U144A — lower, -2.68
- G58C U102A C114A — lower, -4.12
- A12C C87U C114U U139G — lower, -3.08
- U53A A66C A89G G94C C99G — lower, -3.94
- G92U C116U — higher, 0.0946
- A47G U90A C95A A98G A138U A147C — lower, ≤ -4.2
- C27G G92C A142U — lower, ≤ -4.2
- C10G G46U G143C U148C — lower, ≤ -4.2
- C85A C105U — lower, -1.89
- C10U C36U C63A C118U — lower, ≤ -4.2
- U13A A22U U53A G62C A64U U90A A91C C103A A106G C108U G126C — lower, ≤ -4.2
- C54G A64G A106U A107C U148A — lower, ≤ -4.2
- A49C C87U — lower, -4.01
- C8A A22U C79G G81U C95U A107U C108U — lower, ≤ -4.2
- U15G A20U G25U C87U C103G U104G A121G G126U U134C C149A — lower, ≤ -4.2
- C8G A16U A20U C79U C85U A115C — lower, ≤ -4.2
- C32U U101A — lower, -3.76
- U56A C95U A98C — higher, -0.392
- G25C G68C C93A C99G C114U — lower, ≤ -4.2
- A26C G100U — lower, -4
- A39C A89C A119U A120G U130A — lower, ≤ -4.2
- A17G G50A U55G A89U C93A — lower, ≤ -4.2
- U4G U55G — higher, -0.607
- A107G C131A — lower, -4.19
- A60U C131A — lower, -2.81
- A30G A47C G48A — lower, ≤ -4.2
- A3C C10G C57A G83A — lower, -3.78
- C85A A147G — higher, -0.743
- U55G A89G G124C U146C — within 0.2 log units, -1.44
- C38U A120U — higher, -0.54
- C14G U56G C57U C63U C72U U151G — lower, ≤ -4.2
- G11U A19C U55A G71A A91C G100A U109G A122U — lower, ≤ -4.2
- A39U A40U A91U C95G — lower, ≤ -4.2
- C93U C149U — lower, -1.57
- A3G C18U U56G G94A A110U A138U U139A — lower, ≤ -4.2
- C54A C116U U139A — lower, -4.11
- U6A A23C G68U G100U C131U G143U — lower, ≤ -4.2
- A21U C32A C51U A73G U134G — lower, ≤ -4.2
- A20G A22U G70U C85G A110U A121C — lower, ≤ -4.2
- A28G U53G C85A U104G A106G A138U A147G — lower, ≤ -4.2
- A16C G42U G58C G84U G100A U102G A137U U144C — lower, ≤ -4.2
- U56C C87U A89G U101G — lower, -2.81
- U4A A21C — higher, 0.483
- U9A U15A C93U C103G — lower, ≤ -4.2
- C36A G59A U144G — lower, -3.49
- G42A C85U — lower, ≤ -4.2
- C95A U101C — higher, 0.62
- C85U A97U A115U — lower, -2.7
- C8A A64C C72A C95U C116G A121C A138C — lower, ≤ -4.2
- A28U U61C G68A G86A A89U G117C — lower, ≤ -4.2
- G11C U148G — lower, ≤ -4.2
- C18U U56A C85A G124A U135G G136A — lower, ≤ -4.2
- A30G A41U U135A A137U — lower, ≤ -4.2
- A17G U44A A91G — lower, ≤ -4.2
- A137U G141U — lower, -3.93
- A24G C54U C95U A97C A119U C125U — lower, ≤ -4.2
- C10G C36U U55A C95U G133U — lower, ≤ -4.2
- U7G U53A A147G — lower, ≤ -4.2
- C38A G58U C95G — lower, -1.52
- U7C A24U G84U C87G A107C G112U G133U — lower, ≤ -4.2
- C18U C51U U53A G83A — lower, -3.04
- A23U C27G A40G A47U G67A G83U G84A — lower, ≤ -4.2
- A12G A47C G58C C69A C93A U144C — lower, -3.84
- C35G U55A G94A U101G C131U — lower, ≤ -4.2
- U55A U90C C95U U146C C149A — lower, ≤ -4.2
- C51U A73G G92U G124A — higher, -0.37
- A16G A91U — lower, ≤ -4.2
- C96A U144A — higher, -0.177
- G11A C14U U33G U44A C69A C79A C85U A97U — lower, ≤ -4.2
- G11A A21C A24C C43U C85A U111C — lower, ≤ -4.2
- C27A G86A G94A U102G C132U G133U U134A — lower, ≤ -4.2
- A17U A21U C43U G71A C75U C93A C114U A120U U151G — lower, ≤ -4.2
- A39U G48C G67A C85G G86U G88A G92A C118G — lower, ≤ -4.2
- A28G A40G G50A A52G G65U C96U — lower, -3.77
- C93G A107G — lower, ≤ -4.2
- A23U G25C A52C U55A A122C — lower, ≤ -4.2
- G46C U109G — lower, -1.81
